Measured values reported in patent CN115490771A (HEFEI TIANGANG IMMUNOLOGY PHARMACEUTICAL CO LTD, dated 2022).

Tests used:
[1] = target: T1, CD155蛋白 on CHO-K1-CD155 cells (Homo sapiens (Human), UniProt P15151 21-417); assay: flow cytometry on CHO-K1-CD155 cells, Alexa-647 anti-human Fc secondary antibody
T1 construct: also called CHO-K1-CD155细胞
T1 sequence: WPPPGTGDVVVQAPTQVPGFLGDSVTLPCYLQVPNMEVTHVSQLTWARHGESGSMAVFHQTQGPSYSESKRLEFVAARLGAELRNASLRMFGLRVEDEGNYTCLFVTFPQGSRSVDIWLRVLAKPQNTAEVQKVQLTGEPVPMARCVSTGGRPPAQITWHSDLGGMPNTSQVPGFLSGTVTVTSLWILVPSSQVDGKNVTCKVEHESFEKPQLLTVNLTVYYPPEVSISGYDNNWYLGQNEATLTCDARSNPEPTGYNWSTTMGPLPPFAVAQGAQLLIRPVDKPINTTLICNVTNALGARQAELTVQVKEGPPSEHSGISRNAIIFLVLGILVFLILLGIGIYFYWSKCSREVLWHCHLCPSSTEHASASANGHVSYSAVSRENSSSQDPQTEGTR

[2] = target: T2, CD155 on tumour cells (NCI-H1299, NCI-H358, HepG2) (UniProt P15151 21-417, limits assumed); assay: flow cytometry on NCI-H1299 lung cancer cells, Alexa-647 anti-human Fc secondary antibody
T2 construct: whole, on cells; also called 表达CD155的肺癌NCI-H1299细胞; NCI-H358细胞
T2 sequence (looked up): T1 sequence

B1: 双特异抗体 CD3×TIGIT extra (重组双特异抗体, 实施例1) (bispecific antibody, IgG1)
chain 1: EVQLLESGGGLVQPGGSLKLSCAASGFTFNTYAMNWVRQAPGKGLEWVARIRSKYNNYATYYADSVKDRFTISRDDSKNTAYLQMNNLKTEDTAVYYCVRHGNFGNSYVSWFAYWGQGTLVTVSSGGGGSGGGGSGGGGSELVVTQEPSLTVSPGGTVTLTCRSSTGAVTTSNYANWVQQKPGQAPRGLIGGTNKRAPGTPARFSGSLLGGKAALTLSGVQPEDEAEYYCALWYSNLWVFGGGTKLTVLGGGGSPKSCDKTHTCPPCPAPEAAGGPSVFLFPPKPKDTLMISRTPEVTCVVVDVSHEDPEVKFNWYVDGVEVHNAKTKPREEQYNSTYRVVSVLTVLHQDWLNGKEYKCKVSNKALPAPIEKTISKAKGQPREPQVYTLPPSREEMTKNQVSLWCLVKGFYPSDIAVEWESNGQPENNYKTTPPVLDSDGSFFLYSKLTVDKSRWQQGNVFSCSVMHEALHNHYTQKSLSLSPGK
chain 2: MMTGTIETTGNISAEKGGSIILQCHLSSTTAQVTQVNWEQQDQLLAICNADLGWHISPSFKDRVAPGPGLGLTLQSLTVNDTGEYFCIYHTYPDGTYTGRIFLEVLESSVAEHGARFQIPGGGGSPKSCDKTHTCPPCPAPEAAGGPSVFLFPPKPKDTLMISRTPEVTCVVVDVSHEDPEVKFNWYVDGVEVHNAKTKPREEQYNSTYRVVSVLTVLHQDWLNGKEYKCKVSNKALPAPIEKTISKAKGQPREPQVYTLPPSREEMTKNQVSLSCAVKGFYPSDIAVEWESNGQPENNYKTTPPVLDSDGSFFLVSKLTVDKSRWQQGNVFSCSVMHEALHNHYTQKSLSLSPGK
notes: Two-chain heterodimer joined through knob-into-hole IgG1 Fc regions; also called 双特异性抗体; 重组抗体
B1: binds [1]; binds [2].
